{"source": "patent US20260078196A1", "about": "(TJ BIOPHARMA SHANGHAI, published 2026)", "binders": {"B1": {"name": "parental anti-4-1BB sdAb antibody conjugated with IgG1 Fc fragment (Fc fusion)", "chain": "QVQLQESGGGLVQPGGSLRLSCAASGYTYSSNCMGWFRQAPGKGLEGVAVICTGGGSPSYADSVKGRFTISRDNAKNTLYLQMNSLRAEDTAVYYCAADLLRAGTPLSSYEFNYWGQGTLVTVSS", "notes": "also called 4-1BB sdAb-Fc; not shown: IgG1 Fc fragment"}, "B2": {"name": "3A5 (antibody, human IgG1, kappa, V domains shown)", "VH": "EVQLVESGGGLVQPGGSLRLSCAASGYSITNDYAWNWVRQAPGKGLEWVGYISYSGYTTYNPSIKSRFTISRDTSKNTLYLQMNSLRAEDTAVYYCARWTSGLDYWGQGTLVTVSS", "VL": "DIQMTQSPSSLSASVGDRVTITCKASDLIHNWLAWYQQKPGKAPKLLIYGATSLETGVPSRFSGSGSGTDFTLTISSLQPEDFATYYCQQYWTTPFTFGQGTKVEIKR", "notes": "Benchmark anti-MUC16 antibody; printed both as h3A5 and 3A5; also called h3A5; benchmarker 3A5"}}, "key": {"monomeric human 4-1BB [1]": {"biological_target": "T1, monomeric human 4-1BB (human, UniProt Q07011 24-186, limits assumed)", "T1 construct": "SPR analyte/ligand", "T1 sequence (Q07011 24-186 limits assumed)": "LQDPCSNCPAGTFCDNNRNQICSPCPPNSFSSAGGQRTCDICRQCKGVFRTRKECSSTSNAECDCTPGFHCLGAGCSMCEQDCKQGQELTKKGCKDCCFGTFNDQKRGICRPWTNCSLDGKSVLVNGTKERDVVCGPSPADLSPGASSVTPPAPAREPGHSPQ", "test": "SPR, monomeric human 4-1BB"}, "4-1BB on cells": {"biological_target": "T2, 4-1BB on cells (human, UniProt Q07011 24-255)", "T2 construct": "Species is stated as human for section 2.2 as a whole, not for each cell line; also called HEK293 cells expressing 4-1BB; 4-1BB overexpressed HEK293 cell", "T2 sequence (Q07011 24-255)": "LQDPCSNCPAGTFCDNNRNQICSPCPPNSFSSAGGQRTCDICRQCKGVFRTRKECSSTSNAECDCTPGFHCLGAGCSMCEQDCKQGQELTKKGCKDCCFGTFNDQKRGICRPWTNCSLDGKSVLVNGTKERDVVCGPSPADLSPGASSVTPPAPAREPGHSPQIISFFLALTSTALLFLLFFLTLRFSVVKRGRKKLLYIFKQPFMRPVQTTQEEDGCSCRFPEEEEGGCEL", "test": "flow cytometry (GMFI) on HEK293T-4-1BB cells"}, "monomeric human 4-1BB [2]": {"biological_target": "T1, monomeric human 4-1BB", "test": "SPR, measured in parallel"}, "[3]": {"biological_target": "T3, soluble recombinant human 4-1BB (human, UniProt Q07011 24-186)", "T3 construct": "ELISA antigen", "T3 sequence (Q07011 24-186 limits assumed)": "as the sequence (Q07011 24-186 limits assumed) above", "test": "ELISA (OD450) on soluble recombinant human 4-1BB"}, "human MUC16 on cells [4]": {"biological_target": "T4, human MUC16 on cells (human, UniProt Q8WXI7 1-14507)", "T4 construct": "whole, on cells; also called huMUC16; MUC16 on OVCAR3 and SNU216 cells", "test": "flow cytometry (MFI GeoMean) on SNU216 cells, nM is the unit of the x axis Log10[Ab] (nM)"}, "human MUC16 on cells [5]": {"biological_target": "T4, human MUC16 on cells", "test": "flow cytometry (MFI GeoMean) on OVCAR3 cells, nM is the unit of the x axis Log10[Ab] (nM)"}, "[6]": {"biological_target": "T5, HEK293-MUC16 (13810-14507) (human, UniProt Q8WXI7 13810-14507)", "T5 construct": "range 13810-14507; also called MUC16 overexpressed HEK293 cells", "T5 sequence": "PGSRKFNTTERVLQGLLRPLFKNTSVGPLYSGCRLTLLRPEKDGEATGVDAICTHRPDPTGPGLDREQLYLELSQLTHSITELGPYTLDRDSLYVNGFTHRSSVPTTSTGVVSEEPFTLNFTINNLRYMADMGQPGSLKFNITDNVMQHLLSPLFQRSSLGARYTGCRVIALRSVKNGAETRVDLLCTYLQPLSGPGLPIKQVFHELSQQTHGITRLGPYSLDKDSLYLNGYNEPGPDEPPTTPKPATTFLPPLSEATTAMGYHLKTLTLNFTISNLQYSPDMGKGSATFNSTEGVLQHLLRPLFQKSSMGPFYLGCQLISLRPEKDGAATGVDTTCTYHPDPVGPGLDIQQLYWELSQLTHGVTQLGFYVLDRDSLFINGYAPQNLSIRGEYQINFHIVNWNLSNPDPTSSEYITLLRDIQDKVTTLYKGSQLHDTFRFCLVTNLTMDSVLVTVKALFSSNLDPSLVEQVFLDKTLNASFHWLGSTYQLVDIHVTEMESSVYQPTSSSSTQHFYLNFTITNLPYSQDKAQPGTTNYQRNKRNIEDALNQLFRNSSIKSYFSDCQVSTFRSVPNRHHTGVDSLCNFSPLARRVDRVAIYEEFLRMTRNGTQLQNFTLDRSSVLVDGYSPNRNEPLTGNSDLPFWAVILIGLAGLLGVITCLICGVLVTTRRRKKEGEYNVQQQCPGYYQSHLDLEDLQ", "test": "flow cytometry (MFI GeoMean) on HEK293-MUC16 (13810-14507) cells; the curve lies on the Iso curve up to about 4 nM and reaches only about 8000 at 100 nM against 40000-75000 for the others; paragraph 397 says h3A5 does not bind these cells; no unit in the table, nM from the x axis"}}, "data": [{"binder": "B1", "values": [{"measurement": "kon", "setting": "monomeric human 4-1BB [1]", "result": 383000, "unit": "M⁻¹ s⁻¹"}, {"measurement": "EC50", "setting": "4-1BB on cells", "result": 0.131, "unit": "nM"}, {"measurement": "Kd", "setting": "monomeric human 4-1BB [2]", "result": 4.39, "unit": "nM"}, {"measurement": "EC50", "setting": "[3]", "result": 0.071, "unit": "nM"}]}, {"binder": "B2", "values": [{"measurement": "EC50", "setting": "human MUC16 on cells [4]", "result": 0.571, "unit": "nM"}, {"measurement": "EC50", "setting": "human MUC16 on cells [5]", "result": 0.799, "unit": "nM"}, {"measurement": "EC50", "setting": "[6]", "result": 63.4, "unit": "nM"}]}]}
